To fix the notation:
T1: recombinant human LIF receptor (hLIFR) (human, UniProt P42702 45-833, limits assumed)
T1 sequence (looked up): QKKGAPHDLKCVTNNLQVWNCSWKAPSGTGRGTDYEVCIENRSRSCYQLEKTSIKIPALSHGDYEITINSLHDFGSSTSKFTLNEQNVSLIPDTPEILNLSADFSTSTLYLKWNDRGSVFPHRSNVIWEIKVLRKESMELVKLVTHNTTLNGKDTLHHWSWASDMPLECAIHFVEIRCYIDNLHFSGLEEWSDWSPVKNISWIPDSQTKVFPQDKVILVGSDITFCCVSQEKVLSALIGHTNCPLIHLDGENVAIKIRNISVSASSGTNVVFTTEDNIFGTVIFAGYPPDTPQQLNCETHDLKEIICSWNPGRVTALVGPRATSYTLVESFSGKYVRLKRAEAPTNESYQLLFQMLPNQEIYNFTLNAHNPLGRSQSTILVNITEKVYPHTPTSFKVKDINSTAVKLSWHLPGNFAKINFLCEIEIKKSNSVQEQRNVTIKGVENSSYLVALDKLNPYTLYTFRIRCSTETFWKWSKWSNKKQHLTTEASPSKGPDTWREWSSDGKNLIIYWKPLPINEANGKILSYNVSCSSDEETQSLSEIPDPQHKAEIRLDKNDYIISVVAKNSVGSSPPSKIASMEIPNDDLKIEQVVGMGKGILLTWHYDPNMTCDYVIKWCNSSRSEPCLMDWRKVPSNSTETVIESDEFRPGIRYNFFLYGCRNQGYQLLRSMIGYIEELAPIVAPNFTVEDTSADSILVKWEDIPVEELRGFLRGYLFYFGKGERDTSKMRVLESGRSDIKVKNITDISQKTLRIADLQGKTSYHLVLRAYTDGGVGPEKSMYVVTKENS

T2: recombinant human gp130 (human, UniProt P40189 23-619, limits assumed)
T2 sequence (looked up): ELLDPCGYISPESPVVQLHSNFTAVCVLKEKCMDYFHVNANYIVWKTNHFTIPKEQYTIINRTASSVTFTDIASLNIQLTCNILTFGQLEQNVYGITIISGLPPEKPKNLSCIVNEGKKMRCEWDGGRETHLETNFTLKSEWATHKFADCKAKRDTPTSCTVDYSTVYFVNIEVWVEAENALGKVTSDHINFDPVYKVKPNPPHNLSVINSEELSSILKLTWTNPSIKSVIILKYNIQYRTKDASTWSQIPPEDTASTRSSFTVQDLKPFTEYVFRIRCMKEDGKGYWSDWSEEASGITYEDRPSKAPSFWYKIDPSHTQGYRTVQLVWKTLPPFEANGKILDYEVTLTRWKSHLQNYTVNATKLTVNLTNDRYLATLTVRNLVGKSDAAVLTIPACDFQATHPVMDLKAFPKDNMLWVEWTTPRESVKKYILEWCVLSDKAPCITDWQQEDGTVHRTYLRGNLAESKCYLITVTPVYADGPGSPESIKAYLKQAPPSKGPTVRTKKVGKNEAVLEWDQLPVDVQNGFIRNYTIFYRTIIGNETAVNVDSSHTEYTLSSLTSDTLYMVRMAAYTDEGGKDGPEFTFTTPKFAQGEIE

B1: h5D8 (humanized 5D8, H2L2 clone) (antibody, V domains shown)
VH: QVQLQESGGGLVKPGGSLRLSCAASGFTFSHAWMHWVRQAPGKGLEWVGQIKAKSDDYATYYAESVKGRFTISRDDSKNTLYLQMNSLKTEDTAVYYCTCWEWDLDFWGQGTMVTVSS
VL: DIVMTQTPLSSPVTLGQPASISCRSSQSLLDSDGHTYLNWLQQRPGQPPRLLIYSVSNLESGVPDRFSGSGAGTDFTLKISRVEAEDVGVYYCMQATHAPPYTFGQGTKLEIK
notes: Humanized IgG tested as a bivalent antibody; Only VH and VL are tied to h5D8 by name; also called G (H2L2); H5D8-1 IgG
B2: human Leukemia Inhibitory Factor (LIF), expression source not stated (ligand)
chain: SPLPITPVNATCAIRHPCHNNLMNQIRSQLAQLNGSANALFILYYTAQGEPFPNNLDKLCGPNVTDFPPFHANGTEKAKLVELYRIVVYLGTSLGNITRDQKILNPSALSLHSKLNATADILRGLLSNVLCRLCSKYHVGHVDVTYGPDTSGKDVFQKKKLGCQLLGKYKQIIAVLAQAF
notes: also called hLIF; human LIF

Test [1] has as its target B2. Briefly: cell-based or functional assay.
In test [2] the target is T1, recombinant human LIF receptor (hLIFR). Briefly: Octet RED96 control experiment, h5D8 captured on AHC biosensors.
Description: Subsequently, the biosensors were dipped in different concentrations of LIFR.
The target in test [3] is T3, human IL-6 (E. coli) (human, UniProt P05231 30-212, limits assumed).
T3 construct: also called huIL-6 (E. coli)
The test can be described thus: BLI (Octet), h5D8 amine-coupled to AR2G biosensors, cytokine as analyte; table legend: ND = no binding. For orientation: In BLI a coated tip is dipped into the sample, and binding shifts an interference pattern.
Protocol: Kinetics experiments were then performed with the following Dip and Read steps at 30° C., 1000rpm: vi) 60 seconds Baseline in 1× kinetics buffer; vii) 180 seconds Association of appropriate serial dilutions of a cytokine in 1× kinetics buffer; viii) 300 seconds Dissociation in 1× kinetics buffer; ix) Three Regeneration/Neutralization cycles alternating between 10 mM glycine pH 2.0 and 1× kinetics buffer respectively (5 seconds in each for 3 cycles). Following regeneration, the biosensors were reused for subsequent binding analyses.

Test [4] addresses T2, recombinant human gp130. The test can be described thus: ELISA, LIF pre-incubated with B09 and added to a plate coated with recombinant human gp130; the antibody part of the complex detected with peroxidase anti-rat IgG. For orientation: ELISA stands for enzyme-linked immunosorbent assay.

T3 sequence (P05231 30-212 limits assumed): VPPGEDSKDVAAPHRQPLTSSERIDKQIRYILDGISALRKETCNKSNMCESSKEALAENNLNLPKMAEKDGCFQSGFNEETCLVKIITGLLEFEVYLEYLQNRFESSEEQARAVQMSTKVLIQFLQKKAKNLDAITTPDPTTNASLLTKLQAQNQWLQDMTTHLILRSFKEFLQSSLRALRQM

As for B1, the “IC50 for biological inhibition (pSTAT3, MSD assay) under serum starved conditions in U-251 cells” value in test [1] turned out to be 490 picomolar. Besides, the binding result in test [2] and in test [3] was “no binding” in each case.
For B2, in test [4], the binding result is “binds”.

(Values after US20210187106A1 (AstraZeneca / MedImmune, published 2021).)
